# Positions count from the first letter of the chain named. Read-outs that look alike come from different tables or passages of the source.
# B1: bsIgG1 huCD3-H3L1xHER2-LFLEDA (bispecific antibody)
# heavy 1: EVKLVESGGGLVKPGRSLRLSCAASGFTFNTYAMNWVRQAPGKGLEWVARIRSKYNNYATYYADSVKDRFTISRDDSKSILYLQMNSLKTEDTAMYYCVRHGNFGNSYVSWFAYWGQGTLVTVSSASTKGPSVFPLAPSSKSTSGGTAALGCLVKDYFPEPVTVSWNSGALTSGVHTFPAVLQSSGLYSLSSVVTVPSSSLGTQTYICNVNHKPSNTKVDKRVEPKSCDKTHTCPPCPAPEFEGGPSVFLFPPKPKDTLMISRTPEVTCVVVAVSHEDPEVKFNWYVDGVEVHNAKTKPREEQYNSTYRVVSVLTVLHQDWLNGKEYKCKVSNKALPAPIEKTISKAKGQPREPQVYTLPPSREEMTKNQVSLTCLVKGFYPSDIAVEWESNGQPENNYKTTPPVLDSDGSFLLYSKLTVDKSRWQQGNVFSCSVMHEALHNHYTQKSLSLSPGK
# VL 1: not shown
# heavy 2: QVQLVQSGAEVKKPGASVKVSCKASGYTFTNYGISWVRQAPGQGLEWMGWLSAYSGNTIYAQKLQGRVTMTTDTSTTTAYMELRSLRSDDTAVYYCARDRIVVRPDYFDYWGQGTLVTVSSASTKGPSVFPLAPSSKSTSGGTAALGCLVKDYFPEPVTVSWNSGALTSGVHTFPAVLQSSGLYSLSSVVTVPSSSLGTQTYICNVNHKPSNTKVDKRVEPKSCDKTHTCPPCPAPEFEGGPSVFLFPPKPKDTLMISRTPEVTCVVVAVSHEDPEVKFNWYVDGVEVHNAKTKPREEQYNSTYRVVSVLTVLHQDWLNGKEYKCKVSNKALPAPIEKTISKAKGQPREPQVYTLPPSREEMTKNQVSLTCLVKGFYPSDIAVEWESNGQPENNYKTTPPVLDSDGSFFLYSRLTVDKSRWQQGNVFSCSVMHEALHNHYTQKSLSLSPGK
# VL 2: EIVLTQSPATLSLSPGERATLSCRASQSVSSYLAWYQQKPGQAPRLLIYDASNRATGIPARFSGSGSGTDFTLTISSLEPEDFAVYYCQQRSNWPRTFGQGTKVEIK
# B2: bsIgG1 huCD3-H3L1×HER2-LFLEDA (bispecific antibody)
# heavy 1: B1 heavy 1
# VL 1: not shown
# heavy 2: B1 heavy 2
# VL 2: B1 VL 2
# B3: IgG1-huCD3-H4L1 (antibody, V domains shown)
# VH: EVKLVESGGGLVKPGRSLRLSCAASGFTFNTYAMNWVRQAPGKGLEWVARIRSKYNNYATYYADSVKDRFTISRDDSKSILYLQMNSLKTEDTAMYYCVRHGNFGNSYVSWFAYWGQGTMVTVSS
# VL: not shown
# B4: IgG1-huCD3-H1L2 (antibody, V domains shown)
# VH: B3 VH with K13Q, R16G, I80S, S87N, M120L
# VL: QAVVTQEPSFSVSPGGTVTLTCRSSTGAVTTSNYANWVQQTPGQAFRGLIGGTNKRAPGVPARFSGSILGNKAALTITGAQADDESIYFCALWYSNLWVFGGGTKLTVL
# B5: IgG1-huCD3-H3L1-LFLEDA (antibody, V domains shown)
# VH: B3 VH with M120L
# VL: not shown
# B6: IgG1-huCD3-H3L1 with LFLEDA mutations (antibody, V domains shown)
# VH: B3 VH with M120L
# VL: not shown
# B7: IgG1-huCD3-H1L3, wild type Fc region (antibody, V domains shown)
# VH: B3 VH with K13Q, R16G, I80S, S87N, M120L
# VL: B4 VL with I87D, F89Y
# B8: IgG1-huCD3-H1L2, wild type Fc region (antibody, V domains shown)
# VH: B3 VH with K13Q, R16G, I80S, S87N, M120L
# VL: B4 VL
# B9: IgG1-huCD3-H3L3, wild type Fc region (antibody, V domains shown)
# VH: B3 VH with M120L
# VL: B4 VL with I87D, F89Y
# B10: IgG1-huCD3-H3L3 (antibody, V domains shown)
# VH: B3 VH with M120L
# VL: B4 VL with I87D, F89Y
# B11: IgG1-huCD3-H4L1, wild type Fc region (antibody, V domains shown)
# VH: B3 VH
# VL: not shown
# B12: IgG1-huCD3-H1L3 (antibody, V domains shown)
# VH: B3 VH with K13Q, R16G, I80S, S87N, M120L
# VL: B4 VL with I87D, F89Y
# B13: BsIgG1 CD3 x HER2 (bispecific antibody)
# chain 1: B3 VH with V5L, K13Q, G15K, R16G, R19K, K78Q, S87N, M120L, S125A
# chain 2: QAVVTQESALTTSPGETVTLTCRSSTGAVTTSNYANWVQEKPDHLFTGLIGGTNKRAPGVPARFSGSLIGDKAALTITGAQTEDEAIYFCALWYSNLWVFGGGTKLTVL
# chain 3: QVQLVQSGAEVKKPGASVKVSCKASGYTFTNYGISWVRQAPGQGLEWMGWLSAYSGNTIYAQKLQGRVTMTTDTSTTTAYMELRSLRSDDTAVYYCARDRIVVRPDYFDYWGQGTLVTVSS
# chain 4: B1 VL 2
# B14: IgG1-huCD3-H1L1 (antibody, V domains shown)
# VH: B3 VH with K13Q, R16G, I80S, S87N, M120L
# VL: not shown
# What was measured:
# HSC-F (cynomolgous CD3) [1] = target: T1, HSC-F (cynomolgous CD3) (cynomolgus monkey, UniProt Q95LI8 22-171; Q95LI7 23-181); assay: FACS binding, HSC-F
# T1 sequence (Q95LI7 whole entry, looked up, chain 1 of 2): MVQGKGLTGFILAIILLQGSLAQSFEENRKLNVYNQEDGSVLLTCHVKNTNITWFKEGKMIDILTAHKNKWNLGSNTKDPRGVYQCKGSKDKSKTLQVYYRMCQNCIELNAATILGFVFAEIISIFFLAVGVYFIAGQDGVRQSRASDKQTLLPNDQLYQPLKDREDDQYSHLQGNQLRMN
# T1 sequence (Q95LI8 whole entry, looked up, chain 2 of 2): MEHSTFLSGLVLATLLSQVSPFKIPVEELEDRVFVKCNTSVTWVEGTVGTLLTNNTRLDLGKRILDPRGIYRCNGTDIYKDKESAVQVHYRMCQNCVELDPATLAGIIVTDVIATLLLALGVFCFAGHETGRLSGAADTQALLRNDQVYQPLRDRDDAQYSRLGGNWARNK
# [2] = target: T2, human CD3 on the human T-cell line Jurkat (human, UniProt P09693 23-182; P20963 22-164); assay: FACS binding, Jurkat
# T2 sequence (chain, as listed by the source, chain 1 of 4): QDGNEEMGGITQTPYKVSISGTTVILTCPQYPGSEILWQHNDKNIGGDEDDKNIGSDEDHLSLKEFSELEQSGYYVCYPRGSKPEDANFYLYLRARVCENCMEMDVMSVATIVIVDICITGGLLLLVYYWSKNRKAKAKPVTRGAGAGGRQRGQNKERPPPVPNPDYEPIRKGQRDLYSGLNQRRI
# T2 sequence (chain, as listed by the source, chain 2 of 4): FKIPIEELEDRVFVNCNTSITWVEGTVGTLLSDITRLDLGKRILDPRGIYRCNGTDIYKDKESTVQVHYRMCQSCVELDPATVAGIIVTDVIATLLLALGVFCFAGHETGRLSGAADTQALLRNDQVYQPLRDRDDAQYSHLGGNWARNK
# T2 sequence (P09693 23-182, chain 3 of 4): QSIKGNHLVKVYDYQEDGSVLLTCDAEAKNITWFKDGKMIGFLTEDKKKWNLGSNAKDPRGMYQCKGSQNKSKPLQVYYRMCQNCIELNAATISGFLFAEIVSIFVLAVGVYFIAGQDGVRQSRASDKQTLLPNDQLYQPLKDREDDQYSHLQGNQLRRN
# T2 sequence (P20963 22-164, chain 4 of 4): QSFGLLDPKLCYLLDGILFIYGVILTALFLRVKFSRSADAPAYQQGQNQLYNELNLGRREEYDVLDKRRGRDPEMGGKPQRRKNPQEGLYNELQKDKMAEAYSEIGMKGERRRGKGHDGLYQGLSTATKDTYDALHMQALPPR
# HSC-F (cynomolgous CD3) [3] = target: T1, HSC-F (cynomolgous CD3); assay: FACS binding, HSC-F; remark: listed apart in the source
# [4] = target: T2, human CD3 on the human T-cell line …; assay: FACS binding, Jurkat; remark: listed apart in the source
# Jurkat (CD3) = Jurkat (CD3) (human, UniProt P09693 23-182; P20963 22-164); assay: FACS binding, Jurkat
# Chain of Jurkat (CD3) (chain, as listed by the source, chain 1 of 4): as the sequence (chain, as listed by the source, chain 1 of 4) above
# Chain of Jurkat (CD3) (chain, as listed by the source, chain 2 of 4): as the sequence (chain, as listed by the source, chain 2 of 4) above
# Chain of Jurkat (CD3) (P09693 23-182, chain 3 of 4): as the sequence (P09693 23-182, chain 3 of 4) above
# Chain of Jurkat (CD3) (P20963 22-164, chain 4 of 4): as the sequence (P20963 22-164, chain 4 of 4) above
Binder,EC50 (HSC-F (cynomolgous CD3) [3]),EC50 [4],other results
B1,,,EC50 (HSC-F (cynomolgous CD3) [1]): 3.54 µg/mL
B2,,,EC50 [2]: 0.28 µg/mL
B3,0.26 µg/mL,,
B4,0.31 µg/mL,,
B5,0.19 µg/mL,,EC50 (HSC-F (cynomolgous CD3) [1]): 0.3 µg/mL
B6,,0.04 µg/mL,EC50 [2]: 0.04 µg/mL
B7,,0.06 µg/mL,
B8,,0.08 µg/mL,
B9,,0.02 µg/mL,
B10,0.11 µg/mL,,
B11,,0.05 µg/mL,
B12,0.28 µg/mL,,
B13,,,EC50 (Jurkat (CD3)): 0.68 µg/mL
B14,0.37 µg/mL,,

# From US20150337049A1 (published 2015)
